Source: PMC6374916

Experiments:
[1] = molecular target: K18 ΔK280 tau-AF488 fibrils; assay: FRET or BRET; smFRET saturation binding, pseudo-equilibrium, apparent constants; 100 nM tau-AF488 oligomers or 1200 nM fibrils (initial monomer concentration; donor) mixed with 0.5 nM to 10 uM Hsp70-AF647 (acceptor), 5 min on ice, then diluted to 200 pM tau and read on a confocal setup; oligomer size classes by fluorescence intensity
[2] = molecular target: K18 ΔK280 tau-AF488 oligomers, large (10-mers and higher, apparent size); assay: as above
[3] = molecular target: K18 ΔK280 tau oligomers, dual-labeled (tau-AF488/AF647 coaggregates); assay: single-molecule TIRF microscopy colocalisation; dual-labeled tau oligomers produced (heparin, 45 min, 37 °C) in the presence of 2 uM Hsp70-AF405 (1:5 Hsp70/tau), diluted into 0.05 M ammonium acetate pH 7 to 50–200 pM tau, adsorbed onto a glass cover slide for 15 min

For “Hsp70 labeled with Alexa Fluor 647 (from UniProt P0DMV8 1-641) (natural protein)”, the Kd [1] was 19 nM and the Kd [2] was 170 nM.
For “Hsp70 labeled with Alexa Fluor 405 (from UniProt P0DMV8 1-641) (natural protein)”, the stoichiometry N (Hsp70 molecules per tau monomer) [3] was 0.5.
